Test results: paper PMC4539205

What was measured:
[1] = target: recombinant NA (rNA) of avian A/turkey/Turkey/1/2005 (H5N1): 6xHis-tag, tetrabrachion tetramerization domain, two glycines, NA amino acids 51-449 (Staphylothermus marinus | influenza A virus, avian A/turkey/Turkey/1/2005 (H5N1)); experiment: SEC; […], Tris 50 mM, 150 mM NaCl pH 8, CaCl2 10 mM; […]
[2] = target: recombinant NA (rNA) of avian A/turkey/Turkey/1/2005 (H5N1): 6xHis-tag, tetrabrachion tetramerization domain, two glycines, NA amino acids 51-449 (Staphylothermus marinus | influenza A virus, avian A/turkey/Turkey/1/2005 (H5N1)); experiment: negative-stain TEM with single-particle 3D reconstruction
[3] = target: recombinant NA (rNA) of swine A/California/07/2009 (H1N1): 6xHis-tag, tetrabrachion tetramerization domain, two glycines, NA amino acids 71-469 (Staphylothermus marinus | influenza A virus, swine A/California/07/2009 (H1N1)); experiment: SEC; […], Tris 50 mM, 150 mM NaCl pH 8, CaCl2 10 mM; […]

| Substance | stoichiometry N [1] | stoichiometry N [2] | stoichiometry N [3] |
| --- | --- | --- | --- |
| recombinant NA (rNA) of avian A/turkey/Turkey/1/2005 (H5N1): 6xHis-tag, tetrabrachion tetramerization domain, two glycines, NA amino acids 51-449 (enzyme) | 4 | 4 |  |
| recombinant NA (rNA) of swine A/California/07/2009 (H1N1): 6xHis-tag, tetrabrachion tetramerization domain, two glycines, NA amino acids 71-469 (enzyme) |  |  | 4 |
